Laboratory results reported in publication PMC10113246.
Numbering of substitutions follows the chain as printed.

How the values were obtained:
Experiment in all cases: SPR
Parameters in all cases: unit not given here
Conditions in all cases: SPR DBD-TD: 25 mM HEPES pH 7.5, 200 mM NaCl, 0.5 mM TCEP, 0.005% Tween-20, SPR DBD: 10 mM HEPES pH 7.5, 150 mM NaCl, 0.2 mM TCEP
p63 DBD R280S R319S = target: T1, p63 DBD R280S R319S (UniProt Q9H3D4)
T1 sequence: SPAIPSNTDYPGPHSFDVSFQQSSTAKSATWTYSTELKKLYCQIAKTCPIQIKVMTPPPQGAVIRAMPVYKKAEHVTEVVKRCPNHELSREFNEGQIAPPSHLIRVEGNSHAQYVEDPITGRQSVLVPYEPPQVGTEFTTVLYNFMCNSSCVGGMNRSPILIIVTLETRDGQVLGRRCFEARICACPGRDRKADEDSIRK

p63 DBD Y192C Y231C = target: T2, p63 DBD Y192C Y231C (UniProt Q9H3D4)
T2 sequence: T1 sequence with Y70C, S158R

p63 DBD R298Q R337Q = target: T3, p63 DBD R298Q R337Q (UniProt Q9H3D4)
T3 sequence: T1 sequence with S158R, R176Q

p63 DBD R304W R343W = target: T4, p63 DBD R304W R343W (UniProt Q9H3D4)
T4 sequence: T1 sequence with S158R, R182W

p63 DBD R279H R318H = target: T5, p63 DBD R279H R318H (UniProt Q9H3D4)
T5 sequence: T1 sequence with R157H, S158R

p63 DBD V202M V241M = target: T6, p63 DBD V202M V241M (UniProt Q9H3D4)
T6 sequence: T1 sequence with V80M, S158R

p63 DBD H208Y H247Y = target: T7, p63 DBD H208Y H247Y (UniProt Q9H3D4)
T7 sequence: T1 sequence with H86Y, S158R

p63 DBD R204W R243W = target: T8, p63 DBD R204W R243W (UniProt Q9H3D4)
T8 sequence: T1 sequence with R82W, S158R

p63 DBD I172A I211A = target: T9, p63 DBD I172A I211A (UniProt Q9H3D4)
T9 sequence: T1 sequence with I50A, S158R

p63 DBD WT = target: T10, p63 DBD WT (UniProt Q9H3D4)
T10 sequence: T1 sequence with S158R

p63 DBD R227Q R266Q = target: T11, p63 DBD R227Q R266Q (UniProt Q9H3D4)
T11 sequence: T1 sequence with R105Q, S158R

p63 DBD-TD R298Q R337Q = target: T12, p63 DBD-TD R298Q R337Q (UniProt Q9H3D4)
T12 sequence: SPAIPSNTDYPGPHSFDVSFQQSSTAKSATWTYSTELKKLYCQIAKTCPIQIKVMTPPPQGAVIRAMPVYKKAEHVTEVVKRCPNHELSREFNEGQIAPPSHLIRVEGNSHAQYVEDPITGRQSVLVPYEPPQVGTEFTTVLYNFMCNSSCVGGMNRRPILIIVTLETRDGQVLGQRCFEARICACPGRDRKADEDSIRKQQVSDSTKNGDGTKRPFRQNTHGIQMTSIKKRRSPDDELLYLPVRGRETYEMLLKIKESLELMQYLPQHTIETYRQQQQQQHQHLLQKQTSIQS

p63 DBD-TD R280S R319S = target: T13, p63 DBD-TD R280S R319S (UniProt Q9H3D4)
T13 sequence: T12 sequence with R158S, Q176R

p63 DBD-TD R280H R319H = target: T14, p63 DBD-TD R280H R319H (UniProt Q9H3D4)
T14 sequence: T12 sequence with R158H, Q176R

p63 DBD-TD R227Q R266Q = target: T15, p63 DBD-TD R227Q R266Q (UniProt Q9H3D4)
T15 sequence: T12 sequence with R105Q, Q176R

p63 DBD-TD WT = target: T16, p63 DBD-TD WT (UniProt Q9H3D4)
T16 sequence: T12 sequence with Q176R

p63 DBD-TD K193E K232E = target: T17, p63 DBD-TD K193E K232E (UniProt Q9H3D4)
T17 sequence: T12 sequence with K71E, Q176R

p63 DBD-TD R304W R343W = target: T18, p63 DBD-TD R304W R343W (UniProt Q9H3D4)
T18 sequence: T12 sequence with Q176R, R182W

TTTTTTTTTTTAAACATGTTTAAACATGTTT / AAACATGTTTAAACATGTTT [20 bp p63 consensus sequence (SPR)]
Kd (p63 DBD R280S R319S): 351000
Kd (p63 DBD Y192C Y231C): 1240
Kd (p63 DBD R298Q R337Q): 90.8
Kd (p63 DBD R304W R343W): 220
Kd (p63 DBD R279H R318H): 202
Kd (p63 DBD V202M V241M): 83300
Kd (p63 DBD H208Y H247Y): 2060
Kd (p63 DBD R204W R243W): 510
Kd (p63 DBD I172A I211A): 33.7
Kd (p63 DBD WT): 30.4
Kd (p63 DBD R227Q R266Q): 120

TTTTTTTTTTTGAACATGTCCCAACATGTTG / CAACATGTTGGGACATGTTC [p21 response element (SPR)]
Kd (p63 DBD-TD R298Q R337Q): 435
Kd (p63 DBD-TD R280S R319S): 11800
Kd (p63 DBD-TD R280H R319H): 1120
Kd (p63 DBD-TD R227Q R266Q): 515
Kd (p63 DBD-TD WT): 67.9
Kd (p63 DBD-TD K193E K232E): 9920
Kd (p63 DBD-TD R304W R343W): 27000
